This experiment deals with Cy3–Cy5 labeled nucleosome containing H3KC36me3 (human) (UniProt Q71DI3). The experiment in a line: other fluorescence titration.

For the substance PHF1(2–87) (domain or fragment), the Kd amounted to 20 µM and the S1/2 of the PHF1(2–87) titration at constant LexA turned out to be 16 µM.

The Kd is the free concentration of one partner at which half of the binding sites on the other are occupied at equilibrium, for simple one-to-one binding.

The values above are taken from paper PMC5397176.
